Experimental data as given in PMC5881502 (The Journal of Cell Biology, 2018).

B2: malate dehydrogenase (MDH) (enzyme)
chain: AKVAVLGASGGIGQPLSLLLKNSPLVSRLTLYDIAHTPGVAADLSHIETRATVKGYLGPEQLPDCLKGCDVVVIPAGVPRKPGMTRDDLFNTNATIVATLTAACAQHCPDAMICIISNPVNSTIPITAEVFKKHGVYNPNKIFGVTTLDIVRANAFVAELKGLDPARVSVPVIGGHAGKTIIPLISQCTPKVDFPQDQLSTLTGRIQEAGTEVVKAKAGAGSATLSMAYAGARFVFSLVDAMNGKEGVVECSFVKSQETDCPYFSTPLLLGKKGIEKNLGIGKISPFEEKMIAEAIPELKASIKKGEEFVKNMK

Tests used:
[1] = biological target: B2; test: HDX-MS
SEC-MALS = biological target: the molecule itself; test: SEC-MALS
[2] = biological target: Hsp42 WT (purified, C-terminally FLAG-tagged) (S. cerevisiae, UniProt Q12329 1-375); test: HDX-MS

B1: Hsp42ΔIDD (purified) (natural protein, S. cerevisiae, UniProt Q12329 1-375, looked up)
chain: MSFYQPSLSLYDVLNALSNQTGQRGQQGYPRQPQRPQRYHPHYGQVHVGGHHPRHHPLYSRYNGVPNTYYYQFPGQAYYYSPEYGYDDEDGEEEDQDEDSPEVNVYDTEDTYVVVLALPGANSRAFHIDYHPSSHEMLIKGKIEDRVGIDEKFLKITELKYGAFERTVKFPVLPRIKDEEIKATYNNGLLQIKVPKIVNDTEKPKPKKRIAIEEIPDEELEFEENPNPTVEN
[1]
  binding result: binds
SEC-MALS
  stoichiometry N: 36 subunits

## B2
[2]
  binding result: binds

B3: Hsp42ΔPrLD (purified) (domain or fragment, S. cerevisiae, UniProt Q12329 100-375, looked up)
chain: MVGDSGTTRQEDGGEDSNSRRYPSYYHCNTARNNRTNQQANSLNDLLTALIGVPPYEGTEPEIEANTEQEGEKGEEKDKKDKSEAPKEEAGETNKEKPLNQLEESSRPPLAKKSSSFAHLQAPSPIPDPLQVSKPETRMDLPFSPEVNVYDTEDTYVVVLALPGANSRAFHIDYHPSSHEMLIKGKIEDRVGIDEKFLKITELKYGAFERTVKFPVLPRIKDEEIKATYNNGLLQIKVPKIVNDTEKPKPKKRIAIEEIPDEELEFEENPNPTVEN
SEC-MALS
  stoichiometry N: 4 subunits
